PMC11580873

Molecular target: V5-FoTO1 (Taxus media)
Assay: co-IP

“T5αH-HA (from UniProt Q6WG30 1-499) (enzyme)” showed a fold change of the co-IP signal with 400 uM taxadiene in the lysate of 4 fold.
